2 molecules from publication PMC9548623 can be followed below.

Experiment [1] addresses DH475 Fab, heavy chain W104A (human). Put plainly: BLI; BLItz; Fab (0.2 mg/mL) immobilised on Anti-Human Fab-CH1 2nd Generation (FAB2G) biosensors, Env constructs titrated; 2.5 mM Tris pH 7.5, 350 mM NaCl; global fit.
In experiment [2] the target is DH475 Fab, heavy chain N30A (human). The description is as above.
The target of experiment [3] is DH475 Fab, heavy chain N31A (human). Described as above.
Experiment [4] has as its target DH475 Fab, heavy chain D77A (human). Described as above.
For experiment [5], the target named is CH848 TF DS SOSIP Env trimer (HIV-1 (donor CH848, transmitted/founder)). Put plainly: ITC; 157 uM DH272.2 injected into a cell with 7.59 uM CH848 TF DS SOSIP Env; single site model.

DH475 Fab, heavy chain W104A (human), sequence (heavy, as listed by the source, chain 1 of 2): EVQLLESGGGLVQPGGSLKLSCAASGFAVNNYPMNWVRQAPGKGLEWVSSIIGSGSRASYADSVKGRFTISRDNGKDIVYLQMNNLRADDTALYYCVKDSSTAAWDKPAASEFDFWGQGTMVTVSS
DH475 Fab, heavy chain W104A (human), sequence (light, as listed by the source, chain 2 of 2): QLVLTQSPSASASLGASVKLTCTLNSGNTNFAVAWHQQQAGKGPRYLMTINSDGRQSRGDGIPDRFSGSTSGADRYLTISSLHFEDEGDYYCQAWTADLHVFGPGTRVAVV
DH475 Fab, heavy chain N31A (human), sequence (heavy, as listed by the source, chain 1 of 2): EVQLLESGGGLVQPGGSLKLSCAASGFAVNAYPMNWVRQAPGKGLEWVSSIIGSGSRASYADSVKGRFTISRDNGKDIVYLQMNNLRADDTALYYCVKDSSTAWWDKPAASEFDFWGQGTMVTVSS
DH475 Fab, heavy chain N31A (human), sequence (light, as listed by the source, chain 2 of 2): as the sequence (light, as listed by the source, chain 2 of 2) above
DH475 Fab, heavy chain D77A (human), sequence (heavy, as listed by the source, chain 1 of 2): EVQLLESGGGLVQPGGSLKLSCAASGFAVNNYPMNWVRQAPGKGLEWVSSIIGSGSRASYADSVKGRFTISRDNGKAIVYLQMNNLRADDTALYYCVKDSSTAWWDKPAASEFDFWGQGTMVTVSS
DH475 Fab, heavy chain D77A (human), sequence (light, as listed by the source, chain 2 of 2): as the sequence (light, as listed by the source, chain 2 of 2) above
DH475 Fab, heavy chain N30A (human), sequence (heavy, as listed by the source, chain 1 of 2): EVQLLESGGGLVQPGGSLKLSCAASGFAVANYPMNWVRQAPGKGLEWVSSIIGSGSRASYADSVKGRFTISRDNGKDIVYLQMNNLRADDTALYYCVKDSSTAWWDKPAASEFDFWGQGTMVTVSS
DH475 Fab, heavy chain N30A (human), sequence (light, as listed by the source, chain 2 of 2): as the sequence (light, as listed by the source, chain 2 of 2) above

For “CH848 transmitted/founder (TF) gp120 core (domain or fragment)”, the dissociation constant (Kd) in experiment [1], in experiment [2], in experiment [3] and in experiment [4] was more than 50 µM throughout.

B1: DH272.2 Fab (Fab, V domains shown)
VH: QVQLVQSGAEVKKPGASVKVSCQASGYRVSDHFVNWMRQAPGQRLEWIGWFNPDSRDTHYADKFKGRVTSTKIGNTVYMQLSSLRSDDTAVYYCARERYDFHSGLEGSFDFWGQGTLVTV
VL: DIVMTQSPLSLPVTLGQPASISCRSSQSLVHNYGNTYLNWFQQRPGQSPRRLIYKVSGRDSGVPDRFSGGGSGTDFTLKISSVEAEDVGVYYCMQGTHWPRTFGQGTKLEIN
In experiment [5], B1 showed a stoichiometry N of 3.
